Assay results as given in PMC5052687, “The structural basis for CD36 binding by the malaria parasite” (Nature Communications, 2016).
Where a chain is given by its changes, count along the chain named. Numbers in names are those of the source.

B1: MCvar1 PfEMP1 CIDRα2.8 domain (residues 576-745, C626S) (domain or fragment)
chain: EDKIMSYNAFFWMWVHDMLIDSIKWRDEHGRCINKDKGKTCIKGCNKKCISFQKWVEQKKTEWGKIKDHFRKQKDIPKDWTHDDFLQTLLMKDLLLEIIQDTYGDANEIKRIEALLEQAGVGGIDFAALAGLYTKGFVAEKDTTIDKLLQHEQKEADKCLKTHTDDTCPP
notes: PfEMP1 MCvar1, Plasmodium falciparum, CIDRα2.8 domain, residues 576-745; Synthetic codon-optimised cDNA (GeneArt) cloned into pHLsec-8H; also called MCvar1 CIDRα2.8; source: HEK293 cells, secreted, purified (TALON, size-exclusion chromatography); coexpressed with CD36 with kifunensine for the structure and SEC-MALS, expressed individually for SPR
B2: MCvar1 PfEMP1 CIDRα2.8 domain (residues 576-745, C626S) (domain or fragment)
chain: B1 chain
notes: CIDRα2.8 domain of the MCvar1 PfEMP1, Plasmodium falciparum; the reverse cloning primer (D1:p11) ends at ...DTCPP; also called MCvar1 CIDRα2.8; MC179 CIDRα2.8; source: HEK293, secreted, purified (TALON, size-exclusion chromatography); for the crystal co-expressed with CD36 in the presence of kifunensine
B3: MCvar1 CIDRα2.8 domain (residues 576-745, C626S) E672A (domain or fragment)
chain: B1 chain with E97A
notes: CIDRα2.8 domain of the MCvar1 PfEMP1, Plasmodium falciparum; source: HEK293, secreted, purified (TALON, size-exclusion chromatography)
B4: MCvar1 CIDRα2.8 domain (residues 576-745, C626S) F660N:Q662T (domain or fragment)
chain: B1 chain with F85N, Q87T
modifications: N-linked glycan at the introduced site on a small fraction of the protein
notes: CIDRα2.8 domain of the MCvar1 PfEMP1, Plasmodium falciparum; Introduces an N-linked glycosylation site into site 1 of the crystal; also called site 1 mutant; site 1; source: HEK293, secreted, purified (TALON, size-exclusion chromatography)
B5: MCvar1 CIDRα2.8 domain (residues 576-745, C626S) Q648A (domain or fragment)
chain: B1 chain with Q73A
notes: as for B3
B6: MCvar1 CIDRα2.8 domain (residues 576-745, C626S) D680N:N682T (domain or fragment)
chain: B1 chain with D105N, N107T
modifications: N-linked glycan at the introduced site on the majority of the protein
notes: CIDRα2.8 domain of the MCvar1 PfEMP1, Plasmodium falciparum; Introduces an N-linked glycosylation site into site 2 of the crystal; also called site 2 mutant; site 2; source: HEK293, secreted, purified (TALON, size-exclusion chromatography)
B7: IT4var33 CIDRα2.4 domain (domain or fragment)
chain: PLCGLGMQEPPWNPKKDTDCEDRGIKTFDDRNSTPINLLVKDVTGTSIVEKLGGLCGNGAKKNIQTWKCRFESSQNYYCVLQNDKKNTPQQEIESFNSLFWHWITEMLKDSIDWRKEHENCINNNNTCKKGCKSKCECFEKWVKRMKEEWKQVLEVYDKQPDFKEVFTPYFTLGYLLKEYFTKIKAPYEEVESVQEFIKEMEQIIDENSNNINATKENNSITKFLQHEEGIATECKKTHNEEKC
notes: CIDRα2.4 domain of the PfEMP1 IT4var33, Plasmodium falciparum; also called CIDRα2.4 IT4var33; IT4var33 (α2.4)
B8: IT4var15 CIDRα3.5 domain (domain or fragment)
chain: PGCGVELIGNEWKEKNKGECKGGKRYNIPKGTKHNVIPVLSFGDEHKEIIEKIEQFCAESNSDSSKLTEQWKCYYGDKEYEVCTLENRNKSEEDPEEIQKTFHNFFYFWIRHLLNDSIEWRDKINNCIEKAKEGKCKNECKTDCGCFQRWIGKKKEEWGEIKKHFKTQDGFSIFGNNYDFVLENVLNIDELFQDITEAYGNSQKIQGIKDTLAKKKTQAADDATEQKNTIDLLFEYDSEEAEKCKKIQEEC
notes: CIDRα3.5 domain of the PfEMP1 IT4var15, Plasmodium falciparum; also called CIDRα3.5 IT4var15; IT4var15 (α3.5)
B9: IT4var45 CIDRα2.9 domain (domain or fragment)
chain: PWCGVNGTKGNWTPKNDDDCKPGNEYKNYENTQIPILTGDKTKSEIVERYRKFCKNNGKNGANGREGGVGGSENGAASNSDNATTGYCGTNNNDKDPSLCEKWTCYYKKKEKNDGKKAINFCVLQDDKVGKSQEKSMHYNSFFWDWVYHMLHDSLDWRKQLGRCINKKEETKCIGSCNKKCECFAKWVGHKQQEWEQIKKHFLKQDDIGQETNCDPMVTLEILLDIDELLKNIKDTHANADDIDRIQNMLQQAGFDGGVAALVGRCTEGFVAEKDTTIDKFLEKELQEAEKCLETHKEKC
notes: CIDRα2.9 domain of the PfEMP1 IT4var45, Plasmodium falciparum; also called CIDRα2.9 IT4var45; IT4var45 (α2.9)
B10: IT4var61 CIDRα2.7 domain (domain or fragment)
chain: PWCGVKRNGGGWKAKSDGECAKEKKTYKKKNITEIPVLTPDKEKHNILQKYENFCKNSDGNNGDQIKNWQCYYEEKDESDNDGDSNICVLQNENIGKKEEKSMPYHPFFWKWVTEMLIDSMYWRKELKRCINKETKACKNGCKNNCDCYKRWVEEKKKEWGQIKTHFNTQEDMREDIGENTDPGIILAALLNIEDLFENIKDTYGDVKEIKDINQMLEKENEENEGTAGADSKKKNTIDLMINHEQKDAQKCVTNNPDKDC
notes: CIDRα2.7 domain of the PfEMP1 IT4var61, Plasmodium falciparum; also called CIDRα2.7 IT4var61; IT4var61 (α2.7)
B11: IT4var30 CIDRα2.10 domain (domain or fragment)
chain: PWCGIEEQKVDGKWKAKNNGECAKVENKIYDPKKTTTIEILTGDNEKFGIYEKYNKFCANGKNGVTSGAPDTAPGKNGNQIVTWQCYYDKKKRSGQNNDNCVEGTWEKFTGKQTVKSYNVFFWDWVYHMLHDSLEWRERLNSCINNAKSQNCKNNKCNRECGCFAKWVVKKKDEWDKIKDHFNKQENIGQNVGFIEFNHYGVLEGVLDKDELLKNIKDTHADAKDIERIDKMLQQAGVVGGGRGGENNTIIDKFLQEEERFAKDCQQKQEEC
notes: CIDRα2.10 domain of the PfEMP1 IT4var30, Plasmodium falciparum; also called CIDRα2.10 IT4var30; IT4var30 (α2.10)
B12: MAL6P1.252 CIDRα2.1 domain (domain or fragment)
chain: PWCGVKPGGPPWKDNDIDSCGKKEISFSDKDTTDISILSTDRAKKNILQKLENFCRDTEHINHDIWKCHYENTDNDNCILQNENTGSEKQKIMPFDAFFFLWLTQMLDDSIEWRKKLKTCINNEKPTNCIRGCKKPCECFERWVEQKEEEWISIEKHFDKQRDISEEERYITLEYILNEFFMDKIEKAYGIEKSKELKEKLKSNKGHGIIRDTEHSQDAIKILLEHELEDAKKCTETHNDEKC
notes: CIDRα2.1 domain of the PfEMP1 MAL6P1.252, Plasmodium falciparum; also called CIDRα2.1 MAL6P1.252
B13: IT4var12 CIDRα6 domain (domain or fragment)
chain: PWCGLKKQADGTWKRLYENDPQCPIKPKYEPPKGEEPTEIDVLYTGKENKDIIVKLREFCKTDGNTGFKNEEWNCYYQVGNDKCVLENGEELGGEKKVKDYDNFLMFWVAHMLKDSIEWRSKLSNCLKSDKKTCIKKCNDNCKCYEKWIGKKKVEWTQIKKHFDKQTDFQGWGRYFVLETVLEGDQFFTDITKAYGDAREIVHIQEMLQKKKEQVLHEDASNMKTIIDELLDHELKEAKQCIVNHKDNNC
notes: CIDRα6 domain of the PfEMP1 IT4var12, Plasmodium falciparum; also called CIDRα6 IT4var12; IT4var12 (α6)
B14: IT4var14 CIDRα5 domain (domain or fragment)
chain: PWCGIEEQKDGKWKRINDHSACKEEELYTPKENAKYTKINVLTSGEGHEDIAKRLKEFCTKTQNGGGGSDDCGGNSDSSLCEPWQCYQPDQLEKVGGGEVDDKLKGAGGLCIFEKMKGEKKVKKQKTFNNFFNFWVAHVLKDSIDWRTQLTKCLSEDKLKKCEKGCKSNCECFKKWIEKKEKEWIKVKDQFNKQTDFLEWKHYLVLETILENYYFENIQKAYGDLKSIQEMKKMIKENKQNKNRTKDDEDALDVLFDHEKEEAEDCLDIHE
notes: CIDRα5 domain of the PfEMP1 IT4var14, Plasmodium falciparum; also called CIDRα5 IT4var14; IT4var14 (α5)
B15: IT4var24 CIDRα2.2 domain (domain or fragment)
chain: PLCGVNGPKGNWTDIEDKECTLVEKKKYDSNNTTNIDILTADKSQKNILQKYNKFCKNGANDEKSATPTANGGGQIKNWQCYYDESKESGQNNNCILGKWEDFTGNEDVTSYNVFFYNSIIEMLNDSIEWKDKLNICINNKTGKCRKVCKNPCECYKRWIEKKKTELEKIKDHFRKQKDIGDAAQREMTLNITLNNNFLNDIKDAYPVKQQLQKIEERLKDKMQEDFIFERTKTSIDKFLQEEEQFAEKCIEKHKC
notes: CIDRα2.2 domain of the PfEMP1 IT4var24, Plasmodium falciparum; also called CIDRα2.2 IT4var24; IT4var24 (α2.2)
B16: HB3var13 CIDRα3.2 domain (domain or fragment)
chain: PLCGVKKEKGTWVRKDSMNDCPRIKLYKPINDKVGTPINFLYSGDGQTEIAEKLKKFCRTENGSDGSSSARANGASGDKNGGSGSQELYQYWKCYQIGDLQKVREGEDDEDDGQYDQEVENAGGLCILQKTNGKENVNKQKTSHEIQKTFNPFFYYWVVHMLKDSIHWRTEKIKSCINNTNELKACKNNKKCNSDCDCFKRWVKQKGKEWGQIKVHFKTQDIRGKVVNGNTVVSFFLDHDELLEGVLDKGLLLESLQEAYGNAEDIKHIKKLLQETDVVGGGEHKTTIDFLLKEELNEAEECLKKQKDNEC
notes: CIDRα3.2 domain of the PfEMP1 HB3var13, Plasmodium falciparum; also called CIDRα3.2 HB3var13; HB3var13 (α3.2)

What follows are binders tested against T1, human CD36 ectodomain (residues 35-439) (human, UniProt P16671 35-439) (assay: SEC-MALS; coexpressed and purified CD36:MCvar1 CIDRα2.8 complex at 1 mg/ml, Superdex S200 10/300 GL, 10 mM HEPES pH 7.5, 0.15 M NaCl). Details: both partners purified.
T1 construct: CD36, human, ectodomain residues 35-439; Cloned into pHLsec-8H (secretion vector); For crystallisation the complex was deglycosylated (endoglycosidase F1) and treated with carboxypeptidase Y in situ
T1 sequence (P16671 35-439): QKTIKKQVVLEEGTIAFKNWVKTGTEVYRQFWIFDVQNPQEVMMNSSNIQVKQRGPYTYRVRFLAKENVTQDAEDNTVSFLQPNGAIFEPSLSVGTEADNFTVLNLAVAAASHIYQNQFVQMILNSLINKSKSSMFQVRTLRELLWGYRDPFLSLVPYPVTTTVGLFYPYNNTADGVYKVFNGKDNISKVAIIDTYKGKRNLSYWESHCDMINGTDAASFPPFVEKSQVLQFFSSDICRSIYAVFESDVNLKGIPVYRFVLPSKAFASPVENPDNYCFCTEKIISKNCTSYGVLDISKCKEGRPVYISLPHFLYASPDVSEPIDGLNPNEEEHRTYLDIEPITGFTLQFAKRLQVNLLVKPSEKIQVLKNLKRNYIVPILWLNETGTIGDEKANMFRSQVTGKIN

Binder | stoichiometry N
B1 | 1

What follows are binders tested against T2, human CD36 ectodomain (residues 35-439), C-terminal 8xHis and biotinylated BAP tag (human, UniProt P16671 35-439, biotin on the BAP tag (in vitro, BirA ligase)) (assay: SPR; biotinylated CD36 (wild type or F153A) immobilised on a CAPture chip to ~700 RU; CIDRα domains as analytes, two-fold dilutions from 400 nM (Supplementary Figure 10: 400 nM only), 240 s injection, 300 s dissociation; 25 °C, 20 mM HEPES pH 7.5, 0.15 M NaCl, 0.005% Tween20; affinities from equilibrium binding, one site-binding model). Details: both partners purified.
T2 construct: CD36, human, ectodomain residues 35-439; Construct for SPR; vector pHLsec-8H; also called CD36 wild-type; w.t; source: HEK293T, purified (TALON, size-exclusion chromatography), biotinylated in vitro with BirA; not shown: BAP tag, C-terminal, kept
T2 sequence (P16671 35-439): as above

Binder | Kd [nM]
B2 | 12
B3 | 86
B4 | 306
B5 | 362
B6 | 18

Molecular target: T2, human CD36 ectodomain (residues …)
Test: as above
Details: both partners purified
Remark: another data set of the same source

Binder | Kd [nM]
B7 | 3.3
B8 | 3
B9 | 23
B10 | 72
B11 | 55
B12 | 3.6
B13 | 6.6
B14 | 180
B15 | 15.8
B16 | 12.3
